Positions count from the first letter of the chain named.

From patent US20210292393A1 (published 2021) come the findings set out here.

The target in experiment [1] is SARS-CoV-2 spike (S) protein, full length, wild type, expressed on the surface of CHO cells (SARS-CoV-2, UniProt P0DTC2 14-1273).
The target in experiment [2] is SARS-CoV-2 full-length spike protein on pseudotyped lentivirus (SARS-CoV-2, UniProt P0DTC2 14-1273). Nature of the experiment: cell-based or functional assay.

B1: antibody 343 (antibody, V domains shown)
VH: QVQLVESGGDVVQPGTSLRLSCAASGFTFNNYGFHWVRQAPGKGLEWVALISSDGASTHYADSVKGRFTISRDSSVNTLYLQMNSLSLEDTAVYYCATGHCGTTCYYFDYWGQGTLVSVSS
VL: DIQVTQSPSYLSASVGDRVTITCRASQTISTFLQWYQQKVGKAPKLLIYAASTLQSGVPSRFSGSGSGTDFSLTISSLQPEDFATYYCQQSYSAPLSFGGGTKVEIK
Consider B1, for which the “median fluorescence fold over isotype” value in experiment [1] was found to be 1.12 fold over isotype.

B2: antibody 326 (antibody, V domains shown)
VH: QITLKESGPTLVKPTQTLTLTCTFSGFSLNTSGVGVGWIRQPPGKALEWLSLIFWNDDKRYSPSLRSRLTITKDTSKNQVVLTMTNMDPVDTATYFCAHRNSGWSLKFDSWGQGSLVTVSA
VL: DIQMTQSPSSVSASVGDRVTITCRARQGISSWLVWYQQKPGKAPKLLIFGASSLQSGVPSRFNASGTGTEFTLTISSLQPEDFATYYCQQADSFPITFGQGTRLEIK
Regarding B2, the “median fluorescence fold over isotype” value in experiment [1] is 10.1 fold over isotype.

B3: antibody 331 (antibody, V domains shown)
V domain 1: QITLKESGPTLVKPTETLTLTCSFSGFSLTKTGEAAGWIRQAPGRALEWVTVIFWDDDKRYSPSLQNRISVTKDTSKNQVVLRMTNVARFDTGTYFCWAMGGPGKEYFGQGTLVAVSS
V domain 2: QSVLTQPPSVSGAPGQRVTISCTGTSSSIGPYSDVHWYQHVSGKAPRLLIFGNSNRPSGVPDRFSGSKSGTSASLVIAGLQAEDEADYYCQSYDSSLGEIYVFGTGTTVTVL
As to B3, the “median fluorescence fold over isotype” value in experiment [1] turned out to be 20.1 fold over isotype.

B4: antibody 339 (antibody, V domains shown)
V domain 1: B3 V domain 1 with K31R, N67S, I69L, S70T, R83T, G93A, L113Q
V domain 2: B3 V domain 2
For the molecule B4, the “median fluorescence fold over isotype” value in experiment [1] was determined as 21.2 fold over isotype.

B5: antibody 345 (antibody, V domains shown)
VH: QVQLQESGPGLVKPSQTLSLTCTVSGGSISSGDYYWSWIRQPPGKGLEWIGYIYYSGSTYYNPSLKSRVTISVDTSKNQFSLKLSSVTAADTAVYYCARVGMVDNWNFEGNWFDPWGQGTLVTVSS
VL: QSALTQPRSVSGSPGQSVTISCTGTSSDVGGYNYVSWYQQHPGKAPKLMIYDVSKRPSGVPDRFSGSKSGNTASLTISGLQAEDEADYYCCSYAGSVVFGGGTKLTVL
For the molecule B5, the “median fluorescence fold over isotype” value in experiment [1] was 11.7 fold over isotype.

B6: anti-SARS-CoV-2 antibody 555 (antibody, V domains shown)
VH: QVQLVQSGAEVKKPGSSVKVSCKASGGTFSNYAISWVRQAPGQGLEWMGRIIPILGIANYAQKFQGRVTITADKSTSTAYMELSSLRSEDTAVYYCARGYYEARHYYYYYAMDVWGQGTAVTVSS
VL: not shown
In the case of B6, in experiment [2], the “IC50 (pseudoneutralization)” value worked out at 0.38 µg/mL and the “IC80 (pseudoneutralization)” value is 1.4 µg/mL.

B7: anti-SARS-CoV-2 antibody 419 (antibody, V domains shown)
VH: QVQLVQSGAEVKKPGASVKVSCKASGYTFTSYYMHWVRQAPGQGLEWMGIINPSGGSTSYAQKFQGRVTMTRDTSTSTVYMELSSLRSEDTAVYYCARDWTQSSGYDYYYGLDVWGQGTTVTVSS
VL: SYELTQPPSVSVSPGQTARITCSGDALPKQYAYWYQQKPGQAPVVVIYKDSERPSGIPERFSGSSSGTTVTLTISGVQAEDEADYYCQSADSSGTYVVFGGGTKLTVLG
For the molecule B7, in experiment [2], the “IC50 (pseudoneutralization)” value is more than 50 µg/mL and the “IC80 (pseudoneutralization)” value was more than 50 µg/mL.

B8: antibody 329 (antibody, V domains shown)
VH: EVQLVESGGGLVQPGGSLRLSCAASGFTFSSYWMHWVRQAPGKGLVWVSRINSDGSSTSYADSVKGRFTISRDNAKNTLYLQMNSLRAEDTAVYYCAREGIVATITLDYWGQGTLVTVSS
VL: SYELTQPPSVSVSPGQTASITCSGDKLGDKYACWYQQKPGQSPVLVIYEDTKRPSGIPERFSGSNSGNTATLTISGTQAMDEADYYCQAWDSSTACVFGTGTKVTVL
In the case of B8, in experiment [1], the “median fluorescence fold over isotype” value was determined as 9.41 fold over isotype.

B9: antibody 323 (antibody, V domains shown)
VH: QVQLVQSGAEVKKPGASVKVSCKVSGYTLTELSMHWVRQAPGKGLEWMGGFDPEDGETIYAQKFQGRVTMTEDTSTDTAYMELSSLRSEDTAVYYCATSTIFAPGGWFDPWGQGTLVTVSS
VL: QSALTQPASVSGSPGQSITISCTGTSSDVGSYNLVSWYQQHPGKAPKLMIYEVSKRPSGVSNRFSGSKSGNTASLTISGLQAEDEADYYCCSYAGSTHYVFGTGTKVTVL
B9: in experiment [1], the “median fluorescence fold over isotype” value was 20.6 fold over isotype.

B10: antibody 351 (antibody, V domains shown)
VH: HVQLVESGGGVVQPGRSLRLSCAASGFISRNYGMEWVRQAPGQGLEWVAGIWYDGSKKYYADSVKGRFTISRDTSKNTLFLQMDSLRAEDTAVFYCATATKTFCGGDCPPGGMDVWGQGTTVTVST
VL: SYVLTQPPSVSVAPGKTAWITCVGNNIESESVHWYQQRPGQAPVLVIYYDSDRPSGIPERFFGSNSGNTATLTISRVEAGDEADYYCQVWDSNSDLMVFGGGTKLTVL
For the molecule B10, the “median fluorescence fold over isotype” value in experiment [1] came to 1.06 fold over isotype.

B11: antibody 365 (antibody, V domains shown)
VH: QVQLVESGGGVVQPGRSLRLSCAASGFNLSSYAMHWVRQASGKGLEWVSLISYDGSIKYYTDSVKGRFTVSGDNSKNTLFLQMNSLRPDDSALYYCVRGGVSGPNSFDMWGQGTTVTVSS
VL: DVVMTQSPLSLPVTLGQPASISCRSSQSLVYSDGNTYVNWFQQRPGQSPRRLIYKVSIRASGVPDRFSGSGSGTDFALKISRVEAEDVGVYYCMQGTHWPVTFGQGTKVEIK
Consider B11, for which the “median fluorescence fold over isotype” value in experiment [1] came out at 10.7 fold over isotype.

B12: antibody 327 (antibody, V domains shown)
VH: B11 VH with S31N
VL: B11 VL with K55Q, V90I
Regarding B12, in experiment [1], the “median fluorescence fold over isotype” value stood at 9.54 fold over isotype.

B13: anti-SARS-CoV-2 antibody 483 (antibody, V domains shown)
VH: QVQLQESGPGLVKPSETLSLTCTVSGGSISSYYWSWIRQPPGKGLEWIGYIYYSGSTNYNPSLKSRVTISVDTSKNQFSLKLSSVTAADTAVYYCARAPEEKSSEIGELVGWGWFDPWGQGTLVTVSS
VL: not shown
On to B13, for which, in experiment [2], the “IC50 (pseudoneutralization)” value was more than 50 µg/mL and the “IC80 (pseudoneutralization)” value was more than 50 µg/mL.

B14: antibody 366 (antibody, V domains shown)
VH: QVQLVESGGGVVQPGRSLRLSCAASGFTFSSYAMHWVRQAPGKGLEWVAVISYDGSNKYYADSVKGRFTISRDNSKNTLYLQMNSLRAEDTAVYYCARGLVGYNWFDPWGQGTLVTVSS
VL: DIQMTQSPSSVSASVGDRVTITCRASQGISSWLAWYQQKPGKAPKLLIYAASSLQSGVPSRFSGSGSGTDFTLTISSLQPEDFATYYCQQANSFTFGPGTKVDIK
B14: the “median fluorescence fold over isotype” value in experiment [1] amounted to 8.97 fold over isotype.

B15: anti-SARS-CoV-2 antibody 481 (antibody, V domains shown)
VH: EVQLVESGGGLIQPGGSLRLSCAASGFTVSSNYMSWVRQAPGKGLEWVSVIYSGGSTFYADSVKGRFTISRDNSKNTLYLQMNSLRAEDTAVYYCAREVAGTYDYWGQGTLVTVSS
VL: DIQMTQSPSSVSASVGDRVTITCRASQGISSWLAWYQQKPGKAPKLLIYAASSLQSGVPSRFSGSGSGTDFTLTISSLQPEDFATYYCQQANSFPGGTFGPGTKVDIKR
B15: in experiment [2], the “IC50 (pseudoneutralization)” value is 17.2 µg/mL and the “IC80 (pseudoneutralization)” value is more than 50 µg/mL.

B16: antibody 340 (antibody, V domains shown)
VH: QVQLVQSGAEVKKPGASVKVSCKASGYTFTSYDINWVRQATGQGLEWMGWMNPNSGNTGYAQKFQGRVTMTRNTSISTAYMELSSLRSEDTAVYYCARGRYCTGGVCWGDWYFDLWGRGTLVTVSS
VL: QSVLTQPPSVSGAPGQRVTISCTGSSSNIGAGYDVHWYQQLPGTAPKFLIYGNSNRPSGVPDRFSGSKSGTSASLAITGLQAEDEADYYCQSYDSSLSGPVFGGGTKLTVL
As to B16, the “median fluorescence fold over isotype” value in experiment [1] is 33.2 fold over isotype.

B17: antibody 344 (antibody, V domains shown)
VH: QVQLVESGGGVVQPGRSLRLSCAASGFTFSSYAMHWVRQAPGKGLEWMAVISYDGSNKYYADSVKGRFTISRDNSKNTLYLQMNSLRAEDTAVYFCAKGYSGSYYEPFDYWGQGTLVTVSS
VL: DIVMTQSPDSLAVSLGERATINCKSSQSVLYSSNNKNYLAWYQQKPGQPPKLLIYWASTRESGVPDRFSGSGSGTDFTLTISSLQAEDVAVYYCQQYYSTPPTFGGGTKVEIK
For the molecule B17, in experiment [1], the “median fluorescence fold over isotype” value was 7.55 fold over isotype.

B18: antibody 333 (antibody, V domains shown)
VH: QVHLVESGGGVVLPGRSLRLSCSASQFIFSNYDMHWVRQSPGMGLEWVAGISSDGSDKYYIDSVRGRFTISRDNAKNTLFLQMNSLTTEDTAVYSCAKGGGKFGQYWGRGTLVTVSS
VL: AIQMTQSPSSLSASVGDRVTITCRASQVIRNDLAWFQQKPGEAPNLLVYSASNLQSGVPSRFSGSGSGTDFTLTISSLQPEDFATYYCLQDYSYPYTFGQGTKLDMK
Regarding B18, the “median fluorescence fold over isotype” value in experiment [1] came to 1.27 fold over isotype.

B19: anti-SARS-CoV-2 antibody 488 (antibody, V domains shown)
VH: EVQLVESGGGLIQPGGSLRLSCAASGLTVSSNYMSWVRQAPGKGLEWVSVIYSGGSTYYADSVKGRFTISRDNSKNTLYLQMNSLRAEDTAVYYCARSPYGGNSWGQGTLVTVSS
VL: not shown
In the case of B19, in experiment [2], the “IC50 (pseudoneutralization)” value turned out to be 3.52 µg/mL and the “IC80 (pseudoneutralization)” value was more than 50 µg/mL.

B20: antibody 348 (antibody, V domains shown)
VH: QVQLVQSGSELKKPGASVKVSCKASGYTFTSYAMNWVRQAPGQGLEWMGWINTNTGNPTYAQGFTGRFVFSLDTSVSTAYLQISSLKAEDTAVYYCARDHELPNTSSWFGHFEYWGQGTLVTVSS
VL: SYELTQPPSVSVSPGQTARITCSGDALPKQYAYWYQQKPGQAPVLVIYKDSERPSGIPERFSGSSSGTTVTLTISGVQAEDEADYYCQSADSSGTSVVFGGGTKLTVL
Regarding B20, in experiment [1], the “median fluorescence fold over isotype” value came out at 19.6 fold over isotype.

B21: antibody 363 (antibody, V domains shown)
VH: EVQLLESGGGLVQPGGSLRLSCAASGFTFSTYAMSWVRQAPGKGLEWVSAISGSGGSTYYADSVKGRFTISRDNSKNTLYLQMNSLRAEDTAVYYCASGYSPDYWGQGTLVTVSS
VL: not shown
Take B21: the “median fluorescence fold over isotype” value in experiment [1] came to 16.8 fold over isotype.

B22: antibody 324 (antibody, V domains shown)
VH: QVQLQESGPGLVKPSGTLSLTCAVSGGSISSSNWWSWVRQPPGKGLEWIGEIYHSGSTNYNPSLKSRVTISVDNSKNQFSLKLSSVTAADTAVYYCARESVAAAGISYYYYGMDVWGQGTTVTVSS
VL: EIVLTQSPGTLSLSPGERATLSCRASQSVSGRYLAWYQQKPGQAPRLLIYGASSRATGIPDRFSGSGSGTDFTLTISRLEPEDFAVYYCQHYGSSPGTFGQGTRLEIK
Regarding B22, the “median fluorescence fold over isotype” value in experiment [1] was 9.44 fold over isotype.

B23: anti-SARS-CoV-2 antibody 462 (antibody, V domains shown)
VH: QVQLVESGGGVVQPGRSLRLSCAASGFTFSSYGMHWVRQAPGKGLEWVAVIWYDGNNKYYADSVKGRFTISRDNSKNTLYLQMNSLRAEDTAVYYCAKDPTWFGELPSYYYYGMDVWGQGTTVTVSS
VL: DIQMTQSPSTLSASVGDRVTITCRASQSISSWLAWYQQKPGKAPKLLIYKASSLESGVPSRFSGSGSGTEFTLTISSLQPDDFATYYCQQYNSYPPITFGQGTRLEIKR
With B23, in experiment [2], the “IC50 (pseudoneutralization)” value was more than 50 µg/mL and the “IC80 (pseudoneutralization)” value was more than 50 µg/mL.

B24: anti-SARS-CoV-2 antibody 506 (antibody, V domains shown)
VH: QITLKESGPTLVKPTQTLTLTCTFSGFSLSTSGVGVGWIRQPPGKALEWLALIYWDDDKRYSPSLKSRLTITKDTSKNQVVLTMTNMDPVDTATYYCAHHSLSSIFDYWGQGTLVTVSS
VL: QSALTQPASVSGSPGQSITISCTGTSSDVGDYNYVSWYQQHPGKAPKLMIYEVSNRPSGVSNRFSGSKSGNTASLTISGLQAEDEADYYCSSYTSSSTVFGGGTKLTVLG
Regarding B24, in experiment [2], the “IC50 (pseudoneutralization)” value was more than 50 µg/mL and the “IC80 (pseudoneutralization)” value is more than 50 µg/mL.
